Measurements from patent US20250152704A1 (PARAGON THERAPEUTICS, published 2025).

Assays:
[1] = molecular target: T1, human serum albumin (human, UniProt P02768 25-609); experiment: SPR (Biacore 8K), Fc fusion captured by anti-human Fc on CM5, HSA as analyte, 25 C, pH 7.4, 1:1 fit
T1 construct: also called HSA
Description: (§1) Following a stabilization period in running buffer, the Fc fusion molecules at 20 nM were captured onto flow cell 2 (active) for 60 sec at a flow rate of 30 uL/min. […] Samples were injected in a multi-cycle manner over freshly captured Fc fusion molecule, by regenerating the capture surfaces with injection of 10 mM glycine pH 1.5 for 30 sec at a flow rate of 30 μL/min. The data was processed and analyzed with Biacore Insight Evaluation Software Version 2.0.15.12933 (GE Healthcare) as follows. […] The responses from the two buffer blank injections were then subtracted from the reference subtracted data (2-1) to yield double-referenced data, which were fit to a 1:1 binding model to determine the apparent association (ka) and dissociation rate constants (kd). Their ratio provided the apparent equilibrium dissociation constant or affinity constant (KD=kd/ka).

[2] = molecular target: T1, human serum albumin; experiment: SPR (Biacore 8K), Fc fusion captured by anti-human Fc on CM5, HSA as analyte, 25 C, pH 6.0, 1:1 fit
Description: as §1

[3] = molecular target: T2, Recombinant in-house Human FcRn protein (human, UniProt P55899 24-297; P61769 21-119, limits assumed); experiment: SPR (Biacore 8K), Fc fusion captured by anti-human Fc on CM5, huFcRn as analyte, 25 C, pH 7.4, 1:1 fit
T2 construct: also called huFCRN; HuFcRn
T2 sequence (P55899 24-297 limits assumed, chain 1 of 2): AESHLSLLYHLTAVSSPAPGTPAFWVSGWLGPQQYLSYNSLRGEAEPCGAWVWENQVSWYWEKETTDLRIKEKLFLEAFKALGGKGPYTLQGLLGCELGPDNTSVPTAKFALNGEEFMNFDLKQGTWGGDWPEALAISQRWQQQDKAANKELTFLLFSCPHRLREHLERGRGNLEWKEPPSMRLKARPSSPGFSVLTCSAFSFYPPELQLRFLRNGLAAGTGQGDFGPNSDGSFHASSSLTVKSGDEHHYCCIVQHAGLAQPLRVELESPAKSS
T2 sequence (P61769 21-119 limits assumed, chain 2 of 2): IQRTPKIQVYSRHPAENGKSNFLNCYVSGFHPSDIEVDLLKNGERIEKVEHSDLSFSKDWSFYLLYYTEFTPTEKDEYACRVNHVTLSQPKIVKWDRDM
Description: as §1

[4] = molecular target: T2, Recombinant in-house Human FcRn protein; experiment: SPR (Biacore 8K), Fc fusion captured by anti-human Fc on CM5, huFcRn as analyte, 25 C, pH 6.0, 1:1 fit
Description: as §1

[5] = molecular target: FcRn-GFP; experiment: cell-based or functional assay

T1 sequence (P02768 25-609 limits assumed): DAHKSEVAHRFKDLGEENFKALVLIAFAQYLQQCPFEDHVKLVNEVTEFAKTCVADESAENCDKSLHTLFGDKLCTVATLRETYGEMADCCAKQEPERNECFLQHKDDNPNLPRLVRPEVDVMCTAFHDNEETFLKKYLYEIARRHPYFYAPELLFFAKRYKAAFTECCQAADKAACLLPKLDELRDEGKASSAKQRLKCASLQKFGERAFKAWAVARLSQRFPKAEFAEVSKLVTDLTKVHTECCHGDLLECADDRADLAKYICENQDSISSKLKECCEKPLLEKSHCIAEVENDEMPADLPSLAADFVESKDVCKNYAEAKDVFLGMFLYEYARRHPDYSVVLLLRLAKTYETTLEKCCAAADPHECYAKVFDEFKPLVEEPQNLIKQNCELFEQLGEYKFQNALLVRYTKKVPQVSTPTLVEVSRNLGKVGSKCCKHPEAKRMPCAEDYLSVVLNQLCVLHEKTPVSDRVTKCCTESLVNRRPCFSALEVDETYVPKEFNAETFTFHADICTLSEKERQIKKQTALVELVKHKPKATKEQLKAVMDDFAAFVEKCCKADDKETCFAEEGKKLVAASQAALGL

Binder | Kd [1] | Kd [2] | Kd [3] | Kd [4] | Average (n = 3) Residual FcRn [5]
Fc Fusion Molecule 6 (Fc fusion, Made in CHO cells; also called Efgart-G4S-ABD1) DKTHTCPPCPAPELLGGPSVFLFPPKPKDTLYITREPEVTCVVVDVSHEDPEVKFNWYVDGVEVHNAKTKPREEQYNSTYRVVSVLTVLHQDWLNGKEYKCKVSNKALPAPIEKTISKAKGQPREPQVYTLPPSRDELTKNQVSLTCLVKGFYPSDIAVEWESNGQPENNYKTTPPVLDSDGSFFLYSKLTVDKSRWQQGNVFSCSVMHEALKFHYTQKSLSLSPGGGGGSEVQLLESGGGLVQPGGSLRLSCAASGFTFRSFGMSWVRQAPGKGPEWVSSISGSGSDTLYADSVKGRFTISRDNSKNTLYLQMNSLRPEDTAVYYCTIGGSLSRSSQGTLVTVSS | 45.6 nM | 33.8 nM | 634 nM | 2.1 nM | 
Fc Fusion Molecule 46 (Fc fusion) chain 1: DKTHTCPPCPAPELLGGPSVFLFPPKPKDTLYITREPEVTCVVVDVSHEDPEVKFNWYVDGVEVHNAKTKPREEQYNSTYRVVSVLTVLHQDWLNGKEYKCKVSNKALPAPIEKTISKAKGQPREPQVCTLPPSRDELTKNQVSLSCAVKGFYPSDIAVEWESNGQPENNYKTTPPVLDSDGSFFLVSKLTVDKSRWQQGNVFSCSVMHEALKYHYTQKSLSLSPGGGGGSGGGGSGGGGSGGGGSGGGGSGGGGSGGGGSGGGGSEVQLLESGGGLVQPGGSLRLSCAASGFTFRSAGMSWVRQAPGKGPEWVSSISGSGSDTLYADSVKGRFTISRDNSKNTLYLQMNSLRPEDTAVYYCTIGGSLSRSSQGTLVTVSS chain 2: DKTHTCPPCPAPELLGGPSVFLFPPKPKDTLYITREPEVTCVVVDVSHEDPEVKFNWYVDGVEVHNAKTKPREEQYNSTYRVVSVLTVLHQDWLNGKEYKCKVSNKALPAPIEKTISKAKGQPREPQVYTLPPCRDELTKNQVSLWCLVKGFYPSDIAVEWESNGQPENNYKTTPPVLDSDGSFFLYSKLTVDKSRWQQGNVFSCSVMHEALKYHYTQKSLSLSPG |  |  |  |  | 44
Fc Fusion Molecule 12 (Fc fusion, also called Efgart(KIH)-(G4S)3-ABD1; Efgart(H)-(G4S)3-ABD1/Efgart(K)) chain 1: DKTHTCPPCPAPELLGGPSVFLFPPKPKDTLYITREPEVTCVVVDVSHEDPEVKFNWYVDGVEVHNAKTKPREEQYNSTYRVVSVLTVLHQDWLNGKEYKCKVSNKALPAPIEKTISKAKGQPREPQVCTLPPSRDELTKNQVSLSCAVKGFYPSDIAVEWESNGQPENNYKTTPPVLDSDGSFFLVSKLTVDKSRWQQGNVFSCSVMHEALKFHYTQKSLSLSPGGGGGSGGGGSGGGGSEVQLLESGGGLVQPGGSLRLSCAASGFTFRSFGMSWVRQAPGKGPEWVSSISGSGSDTLYADSVKGRFTISRDNSKNTLYLQMNSLRPEDTAVYYCTIGGSLSRSSQGTLVTVSS chain 2: DKTHTCPPCPAPELLGGPSVFLFPPKPKDTLYITREPEVTCVVVDVSHEDPEVKFNWYVDGVEVHNAKTKPREEQYNSTYRVVSVLTVLHQDWLNGKEYKCKVSNKALPAPIEKTISKAKGQPREPQVYTLPPCRDELTKNQVSLWCLVKGFYPSDIAVEWESNGQPENNYKTTPPVLDSDGSFFLYSKLTVDKSRWQQGNVFSCSVMHEALKFHYTQKSLSLSPG | 54.6 nM | 33.4 nM | 492 nM | 11.3 nM | 
Fc Fusion Molecule 11 (Fc fusion, also called ABD1-(G4S)3-Efgart(KIH); ABD1-(G4S)3-Efgart(H)/Efgart(K)) chain 1: EVQLLESGGGLVQPGGSLRLSCAASGFTFRSFGMSWVRQAPGKGPEWVSSISGSGSDTLYADSVKGRFTISRDNSKNTLYLQMNSLRPEDTAVYYCTIGGSLSRSSQGTLVTVSSGGGGSGGGGSGGGGSDKTHTCPPCPAPELLGGPSVFLFPPKPKDTLYITREPEVTCVVVDVSHEDPEVKFNWYVDGVEVHNAKTKPREEQYNSTYRVVSVLTVLHQDWLNGKEYKCKVSNKALPAPIEKTISKAKGQPREPQVCTLPPSRDELTKNQVSLSCAVKGFYPSDIAVEWESNGQPENNYKTTPPVLDSDGSFFLVSKLTVDKSRWQQGNVFSCSVMHEALKFHYTQKSLSLSPG chain 2: DKTHTCPPCPAPELLGGPSVFLFPPKPKDTLYITREPEVTCVVVDVSHEDPEVKFNWYVDGVEVHNAKTKPREEQYNSTYRVVSVLTVLHQDWLNGKEYKCKVSNKALPAPIEKTISKAKGQPREPQVYTLPPCRDELTKNQVSLWCLVKGFYPSDIAVEWESNGQPENNYKTTPPVLDSDGSFFLYSKLTVDKSRWQQGNVFSCSVMHEALKFHYTQKSLSLSPG | 12 nM | 7.26 nM | 371 nM | 6.69 nM | 
Fc Fusion Molecule 5 (Fc fusion, Made in CHO cells; also called ABD1-G4S-Efgart) EVQLLESGGGLVQPGGSLRLSCAASGFTFRSFGMSWVRQAPGKGPEWVSSISGSGSDTLYADSVKGRFTISRDNSKNTLYLQMNSLRPEDTAVYYCTIGGSLSRSSQGTLVTVSSGGGGSDKTHTCPPCPAPELLGGPSVFLFPPKPKDTLYITREPEVTCVVVDVSHEDPEVKFNWYVDGVEVHNAKTKPREEQYNSTYRVVSVLTVLHQDWLNGKEYKCKVSNKALPAPIEKTISKAKGQPREPQVYTLPPSRDELTKNQVSLTCLVKGFYPSDIAVEWESNGQPENNYKTTPPVLDSDGSFFLYSKLTVDKSRWQQGNVFSCSVMHEALKFHYTQKSLSLSPG |  | 6.32 nM | 375 nM | 8.07 nM | 
